From publication PMC12416549 (2024)
Residue numbers refer to the chain shown, from its start. Names may count otherwise.

T1: TNFR1 (Homo sapiens, UniProt P19438)
T1 chain: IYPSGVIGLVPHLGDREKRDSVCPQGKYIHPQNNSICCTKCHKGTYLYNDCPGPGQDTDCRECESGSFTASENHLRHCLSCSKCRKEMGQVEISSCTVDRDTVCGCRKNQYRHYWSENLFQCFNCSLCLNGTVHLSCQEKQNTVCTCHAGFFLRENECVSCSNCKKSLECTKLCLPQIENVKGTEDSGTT

B1: A30G (designed binder)
chain: SMEEEVEKAAKEYEKKKKEAIEKHLEKLKGKDKEAAERFLKELEEAAKEYAKDEAKTMSEEEAKRRAKKYKEKVLLSELSEEEQKEIKEAEEKLVRTILKYVEEAAK
B2: R38Y (designed binder)
chain: B1 chain with G30A, R38Y
B3: K29N (designed binder)
chain: B1 chain with K29N, G30A
B4: E91M (designed binder)
chain: B1 chain with G30A, E91M
B5: E78C (designed binder)
chain: B1 chain with G30A, E78C
B6: Y13L (designed binder)
chain: B1 chain with Y13L, G30A
B7: E19C (designed binder)
chain: B1 chain with E19C, G30A
B8: K15V (designed binder)
chain: B1 chain with K15V, G30A
B9: S77K (designed binder)
chain: B1 chain with G30A, S77K
B10: E61Y (designed binder)
chain: B1 chain with G30A, E61Y
B11: A36N (designed binder)
chain: B1 chain with G30A, A36N
B12: V74S (designed binder)
chain: B1 chain with G30A, V74S
B13: E61H (designed binder)
chain: B1 chain with G30A, E61H
B14: E4W (designed binder)
chain: B1 chain with E4W, G30A
B15: E7Y (designed binder)
chain: B1 chain with E7Y, G30A
B16: K31G (designed binder)
chain: B1 chain with G30A, K31G
B17: E83M (designed binder)
chain: B1 chain with G30A, E83M
B18: L79E (designed binder)
chain: B1 chain with G30A, L79E
B19: M2L (designed binder)
chain: B1 chain with M2L, G30A
B20: K17H (designed binder)
chain: B1 chain with K17H, G30A
B21: K16S (designed binder)
chain: B1 chain with K16S, G30A
B22: L94D (designed binder)
chain: B1 chain with G30A, L94D
B23: E54H (designed binder)
chain: B1 chain with G30A, E54H
B24: E92D (designed binder)
chain: B1 chain with G30A, E92D
B25: E5S (designed binder)
chain: B1 chain with E5S, G30A
B26: S80R (designed binder)
chain: B1 chain with G30A, S80R
B27: E4F (designed binder)
chain: B1 chain with E4F, G30A
B28: A35T (designed binder)
chain: B1 chain with G30A, A35T
B29: F39K (designed binder)
chain: B1 chain with G30A, F39K
B30: D53W (designed binder)
chain: B1 chain with G30A, D53W
B31: T57A (designed binder)
chain: B1 chain with G30A, T57A
B32: A105L (designed binder)
chain: B1 chain with G30A, A105L
B33: K33N (designed binder)
chain: B1 chain with G30A, K33N
B34: R96V (designed binder)
chain: B1 chain with G30A, R96V
B35: K71I (designed binder)
chain: B1 chain with G30A, K71I
B36: S80I (designed binder)
chain: B1 chain with G30A, S80I
B37: D32T (designed binder)
chain: B1 chain with G30A, D32T
B38: V6L (designed binder)
chain: B1 chain with V6L, G30A
B39: A46K (designed binder)
chain: B1 chain with G30A, A46K
B40: E42I (designed binder)
chain: B1 chain with G30A, E42I
B41: L76Y (designed binder)
chain: B1 chain with G30A, L76Y
B42: E19L (designed binder)
chain: B1 chain with E19L, G30A
B43: K18M (designed binder)
chain: B1 chain with K18M, G30A

Target: T1, TNFR1
Assay: yeast display SC50

| apparent Kd (screen) [nM] | Binder |
| --- | --- |
| 0.956 | B1 |
| 0.49 | B2 |
| 0.539 | B3 |
| 11.4 | B4 |
| 0.49 | B5 |
| 1.86 | B6 |
| 0.446 | B7 |
| 1.05 | B8 |
| 4.83 | B9 |
| 1.86 | B10 |
| 2.73 | B11 |
| 22.2 | B12 |
| 1.54 | B13 |
| 1.54 | B14 |
| 7.07 | B15 |
| 0.653 | B16 |
| 0.446 | B17 |
| 18.3 | B18 |
| 1.05 | B19 |
| 0.869 | B20 |
| 3 | B21 |
| 1.86 | B22 |

| apparent Kd (screen) [nM] | Binder |
| --- | --- |
| 12.5 | B23 |
| 0.446 | B24 |
| 0.593 | B25 |
| 0.593 | B26 |
| 1.69 | B27 |
| 0.593 | B28 |
| 8.56 | B29 |
| 10.4 | B30 |
| 2.73 | B31 |
| 1.86 | B32 |
| 1.05 | B33 |
| 0.869 | B34 |
| 0.539 | B35 |
| 1.69 | B36 |
| 1.4 | B37 |
| 3 | B38 |
| 4.39 | B39 |
| 6.43 | B40 |
| 2.05 | B41 |
| 0.49 | B42 |
| 1.05 | B43 |
